Experimental findings from the Human Domainome abundance scans (Beltran et al. 2025) are described below.

± gives the uncertainty stated by the source.

Sequences and labels used below:
B1: Metastasis-associated protein MTA3, residues 265 to 317; numbered along this chain, Q9BTC8 (parent)
chain: RDEMEEWSASEASLFEEALEKYGKDFNDIRQDFLPWKSLTSIIEYYYMWKTTD

Variants of B1 are the subject of the data set. Description: abundance fitness (aPCA) (normalised: wild type 0, dead -1); higher = more abundant; growth selection in yeast, the domain comes from the species named. The settings on record: Homo sapiens.
In the case of IDEMEEWSASEASLFEEALEKYGKDFNDIRQDFLPWKSLTSIIEYYYMWKTTD [R1I], the abundance fitness is 0.025 ± 0.23.
For RDEMEEWSASEASLFEEALEKYGKDFDDIRQDFLPWKSLTSIIEYYYMWKTTD [N27D], the abundance fitness is 0.074 ± 0.15.
RDTMEEWSASEASLFEEALEKYGKDFNDIRQDFLPWKSLTSIIEYYYMWKTTD [E3T]: the abundance fitness amounted to 0.741 ± 0.15.
As for RDQMEEWSASEASLFEEALEKYGKDFNDIRQDFLPWKSLTSIIEYYYMWKTTD [E3Q], the abundance fitness is -0.357 ± 0.32.
Consider RDGMEEWSASEASLFEEALEKYGKDFNDIRQDFLPWKSLTSIIEYYYMWKTTD [E3G], for which the abundance fitness is -0.475 ± 0.15.
Consider RDDMEEWSASEASLFEEALEKYGKDFNDIRQDFLPWKSLTSIIEYYYMWKTTD [E3D], for which the abundance fitness is -0.006 ± 0.079.
Regarding RDEMEEWSASEASLFEEALEKYGKDFNDIRQDFLPWKSSTSIIEYYYMWKTTD [L39S], the abundance fitness is -0.581 ± 0.22.
RDEMEEWSASEASLFEEALEKYGKDFNDIRQDFLPWKSGTSIIEYYYMWKTTD [L39G]: the abundance fitness was -0.896 ± 0.17.
On to RDEMEEWSASEASLFEEALEKYGKDFNDIRQDFLPWTSLTSIIEYYYMWKTTD [K37T], for which the abundance fitness is -0.88 ± 0.082.
With RDEMEEWSASEASLFEEALEKYGKDFNDIRQDFLPWGSLTSIIEYYYMWKTTD [K37G], the abundance fitness is -0.812 ± 0.09.
As to RDEMEEWSASEASLFEEALEKYGKDFNDIRQDFLPWWSLTSIIEYYYMWKTTD [K37W], the abundance fitness is -0.84 ± 0.089.
The result for RDEMEEWSASEASLFEEALEKYGKDFNDIRQDFLPWHSLTSIIEYYYMWKTTD [K37H] reads -0.941 ± 0.11.
As to RDEMEEWSNSEASLFEEALEKYGKDFNDIRQDFLPWKSLTSIIEYYYMWKTTD [A9N], the abundance fitness was -0.677 ± 0.16.
For the variant RDEMEEWSWSEASLFEEALEKYGKDFNDIRQDFLPWKSLTSIIEYYYMWKTTD [A9W], the abundance fitness is -0.527 ± 0.14.
The result for RDEMEEWSASEASLFEEALEKYGKDFNDIRQDFLPWKHLTSIIEYYYMWKTTD [S38H] reads -0.425 ± 0.19; that for RDEMEEWSASEASLFEEALEKYGKDFNDIRQDFLPWKVLTSIIEYYYMWKTTD [S38V], -0.821 ± 0.23; that for RDEMEEWSASEASLFEEALEKYGKMFNDIRQDFLPWKSLTSIIEYYYMWKTTD [D25M], -0.25 ± 0.16.
For RDEMEEWSASEASLFEEALEKYGKIFNDIRQDFLPWKSLTSIIEYYYMWKTTD [D25I], the abundance fitness is -0.162 ± 0.18.
Take RDEMEEWSASEASLFEEALEKYGKDFNDIRQDFLPWKSLTSIIEYYYMWFTTD [K50F]: the abundance fitness was -0.62 ± 0.17.
Regarding RDEMEEWSASEASLFEEALEKYGKDFNDIRQDFLPWKSLTSIIEYYYMWITTD [K50I], the abundance fitness is -0.653 ± 0.089.
In the case of RDEMEEWSASEASLFEEALEKYGKDFNDIRQDFLPWKSLTSIIEYYYMWQTTD [K50Q], the abundance fitness is -0.102 ± 0.077.
Regarding RDEMEEWSASEASLFEEALEKYGKDFNDIRQDFLPWKSLTSIIEYYYMWMTTD [K50M], the abundance fitness was -0.171 ± 0.13.
As to RDEMEEWSASEASLFEEALEKYGKDFNDIRQDFLPWKSLTSIIEYKYMWKTTD [Y46K], the abundance fitness was -0.791 ± 0.43.
On to RDEMEEWSASEASLFEEALEKYGKDFNDIRQDFLPWKSLTSIIEYAYMWKTTD [Y46A], for which the abundance fitness is -0.824 ± 0.12.
In the case of RDEMEEWSASEASLFEEALEKYGKDFNDIRQDFLPWKSLTWIIEYYYMWKTTD [S41W] it was -0.901 ± 0.16; in that of RDEMEEWSASEASLFEEALEKYGKDFNDIRQDFLPWKSLTNIIEYYYMWKTTD [S41N], -0.561 ± 0.13; in that of RDEMEEWSASESSLFEEALEKYGKDFNDIRQDFLPWKSLTSIIEYYYMWKTTD [A12S], -0.436 ± 0.1.
For the variant RDEMEEWSASETSLFEEALEKYGKDFNDIRQDFLPWKSLTSIIEYYYMWKTTD [A12T], the abundance fitness was -0.238 ± 0.085.
Consider RDEMEEWSASENSLFEEALEKYGKDFNDIRQDFLPWKSLTSIIEYYYMWKTTD [A12N], for which the abundance fitness was -0.15 ± 0.093.
Consider RDEMEEWSASEQSLFEEALEKYGKDFNDIRQDFLPWKSLTSIIEYYYMWKTTD [A12Q], for which the abundance fitness was 0.215 ± 0.11.
For RDEYEEWSASEASLFEEALEKYGKDFNDIRQDFLPWKSLTSIIEYYYMWKTTD [M4Y], the abundance fitness was -0.797 ± 0.41.
For RDEQEEWSASEASLFEEALEKYGKDFNDIRQDFLPWKSLTSIIEYYYMWKTTD [M4Q], the abundance fitness is -0.885 ± 0.35.
In the case of RDEMEEWSASEASLFEEALEKYGKDFNDIRQDFLPQKSLTSIIEYYYMWKTTD [W36Q] it was -0.422 ± 0.17; in that of RDEMEEWSASEASLFEEALEKYGKDFNDIRQDFLPRKSLTSIIEYYYMWKTTD [W36R], -0.58 ± 0.091.
In the case of RDEMEEWSASEASLFEEALEKYGKDFNDIRQDFLPWKSLTSIIEYYYMDKTTD [W49D] it was -0.532 ± 0.36; in that of RDEMEEWSASEASLFEEALEKYGKDFNDIRQDFLPWKSLTSIIEYYYMRKTTD [W49R], 0.514 ± 0.083.
As to RDEMEEWSASEASLFEQALEKYGKDFNDIRQDFLPWKSLTSIIEYYYMWKTTD [E17Q], the abundance fitness was -0.557 ± 0.12.
As for RDEMEEWSASEASLFECALEKYGKDFNDIRQDFLPWKSLTSIIEYYYMWKTTD [E17C], the abundance fitness is -0.589 ± 0.1.
In the case of RDEMEEWSASEASLFEEALEKYGKDFNDIRQDFLPWKSLTSIIEYYYMWKFTD [T51F] it was -0.732 ± 0.35.
Consider RDEMEEWSASEASLFEEALEKYGKDFNDIRQDFLPWKSLTSIIEYYYMWKGTD [T51G], for which the abundance fitness was found to be 0.076 ± 0.075.
The result for RDEMEEWSASEASLFEEALEKYGKDFNDIRQDFLPWKSLTSIIEYYYMWKPTD [T51P] reads -0.1 ± 0.1; that for RDEMEEWSASEASLFEEALEKYGKDFNDIRQDFLPWKSLTSIIEYYYMWKDTD [T51D], 0.134 ± 0.18; that for RDEMEEWSASEASLFEEALEKYGKDFNDIRQDFLPWKSLTSIIEYYSMWKTTD [Y47S], 0.325 ± 0.14.
Take RDEMEEWSASEASLFEEALEKYGKDFNDIRQDFLPWKSLTSIINYYYMWKTTD [E44N]: the abundance fitness was found to be 0.177 ± 0.18.
RDEMEEWSASEASLFEEAIEKYGKDFNDIRQDFLPWKSLTSIIEYYYMWKTTD [L19I]: the abundance fitness stood at 0.027 ± 0.12.
Regarding RDEMEEWSASEASLFEEAGEKYGKDFNDIRQDFLPWKSLTSIIEYYYMWKTTD [L19G], the abundance fitness was determined as 0.002 ± 0.18.
With RDEMEEWSASEASLFEEADEKYGKDFNDIRQDFLPWKSLTSIIEYYYMWKTTD [L19D], the abundance fitness was -0.92 ± 0.36.
In the case of RDEMEEWSASEASLFEEAVEKYGKDFNDIRQDFLPWKSLTSIIEYYYMWKTTD [L19V], the abundance fitness was determined as 0.113 ± 0.068.
RDEMEEWSASEASLFEEALEKYGKDFNGIRQDFLPWKSLTSIIEYYYMWKTTD [D28G]: the abundance fitness is 0.079 ± 0.12.
